Data as given in PMC6080896 (The Journal of General Physiology, 2018).

Target: cerulean-tagged CaM (Cer-CaMWT) (UniProt P0DP23 1-149)
Assay: FRET or BRET

B1: Venus-tagged CaV1.1 CI (Ven-CaV1.1 CI) (domain or fragment)
chain: not shown
Kd: ~2300 nM
